Measurements taken from the DeepSol protein solubility set.

Assay: soluble on expression in E. coli; label from the status in PepcDB or PDB records

**Q.** Which “soluble on expression in E. coli” value does the source give for “MSSSNENAGKHSYLRSLISGLSSQGICAYVYASSGYGESSTDIVFTGKAFIAEAGEIVEEMERFRYEERMIISDIDVSRIQTERLINSSFKAAVTFHTHDEKFNQLPFKLRSRQESLPMTRRVLEHHHHHH” here?
**A.** soluble

**Q.** Which “soluble on expression in E. coli” value does the source give for “MRGSHHHHHHGMASMTGGQQMGRDLYDDDDKDRWIRTGGYQPTLWDFSTIQSFDSEYKEEKHLMRAAGMIDQVKMMLQEEVDSIRRLELIDDLRRLGISCHFEREIVEILNSKYYTNNEIDERDLYSTALRFRLLRQYDFSVSQEVFDCFKNAKGTDFKPSLVDDTRGLLQLYEASFLSAQGEETLRLARDFATKFLQKRVLVDKDINLLSSIERALELPTHWRVQMPNARSFIDAYKRRPDMNPTVLELAKLDFNMVQAQFQQELKEASRWWNSTGLVHELPFVRDRIVECYYWTTGVVERRQHGYERIMLTKINALVTTIDDVFDIYGTLEELQLFTTAIQRWDIESMKQLPPYMQICYLALFNFVNEMAYDTLRDKGFDSTPYLRKVWVGLIESYLIEAKWYYKGHKPSLEEYMKNSWISIGGIPILSHLFFRLTDSIEEEAAESMHKYHDIVRASCTILRLADDMGTSLDEVERGDVPKSVQCYMNEKNASEEEAREHVRSLIDQTWKMMNKEMMTSSFSKYFVEVSANLARMAQWIYQHESDGFGMQHSLVNKMLRDLLFHRYE” here?
**A.** soluble

**Q.** With “MGSDKIHHHHHHMSGKLTVITGPMYSGKTTELLSFVEIYKLGKKKVAVFKPKIDSRYHSTMIVSHSGNGVEAHVIERPEEMRKYIEEDTRGVFIDEVQFFNPSLFEVVKDLLDRGIDVFCAGLDLTHKQNPFETTALLLSLADTVIKKKAVCHRCGEYNATLTLKVAGGEEEIDVGGQEKYIAVCRDCYNTLKKRV” as the sequence, how does the “soluble on expression in E. coli” value read?
**A.** not soluble

**Q.** With “MQDILFDFISTYISLTEDEKNALLSLDLFRSVPKGTILLKEGQKSQESYFVLKGCIRIYYIIDGEEKTTAFYTEMDALTPPCVIHNAPSEYFISCIEDSILTVSNLEMEAEINSKFPKFELMCRMLSEELLAKQQIDFDAFKTSSPEQRYLNVLQNRPDLIQRVPQHQLASFLGIKPQSLSRLRARIVDKKS” as the sequence, how does the “soluble on expression in E. coli” value read?
**A.** not soluble

**Q.** Which “soluble on expression in E. coli” value does the source give for “MAHHHHHHMVLLKILKKIKDNKRNLRILILGLDNAGKTTIIKRLLGEDIYSVSPTFGFNIETLEFGNNILNIWDIGGQKSIRHFWKNYYEDVDGIIFVVDSTDLFRLQLCSFELKQILKEERLYGSTLLILSNKVDIDKSLTINQIVEILKLNEMNMDRHWCINECSAFSGKGLLKSFMWLIDDITDRIDS” here?
**A.** not soluble

**Q.** For “MAHHHHHHMKPTKPLLYITGYGPFLEVTENPSATIAQSVAEQVRQSGEADVHHETLDVNLEAVSKYFNRLNESVTAHLEATHPENRVLLVNVGLHSREKEKVLRLEVRAFNELEGNPIDDELPLSTCKDSAFVKGCKLETTTALIEELNAIERNGSDHHEKPRWIISYDAGRYYCNYALYRGVKMQEALNSRVFAVFLHIVASTVVCMEEQVAQVRMLVSHLLKHMEAVE”, which “soluble on expression in E. coli” value is on record?
**A.** soluble

**Q.** Which “soluble on expression in E. coli” value does the source give for “MGSDKIHHHHHHMRWFSLATAFLWGYYGFDNFGDELMFKACVNLLRELGFGTIYTPLPKGKKSMGVTSVDRYSIKLLSLLKKSQVSIAGGGGLFQDVTSLRSLLYYYSISKASLLMDKPLIFFGNSVGPLRRRLSKKLVWDVFKDKRTVFIARDPASYRYVKMVGGNAVLGTDPAIIHLMESDMEKKTEKKAVFFLKSPMDVSYILKSLRDQGINDFVISTAFPGDHSYLPPLRNGENLLEEIVSSSIVITERFHPALVAAYFEIPFIIVDCQKARRFFARYTKEDHFFSKRDPLEISLKVPVVLKKELKLKEKMKNDAIEMKEMLKGVLKGW” here?
**A.** not soluble

**Q.** With “AVKVGINGFGRIGRNVFRAALKNPDIEVVAVNDLTDANTLAHLLKYDSVHGRLDAEVSVNGNNLVVNGKEIIVKAERDPENLAWGEIGVDIVVESTGRFTKREDAAKHLEAGAKKVIISAPAKNEDITIVMGVNQDKYDPKAHHVISNASCTTNCLAPFAKVLHEQFGIVRGMMTTVHSYTNDQRILDLPHKDLRRARAAAESIIPTTTGAAKAVALVLPELKGKLNGMAMRVPTPNVSVVDLVAELEKEVTVEEVNAALKAAAEGELKGILAYSEEPLVSRDYNGSTVSSTIDALSTMVIDGKMVKVVSWYDNETGYSHRVVDLAAYIASKGL” as the sequence, how does the “soluble on expression in E. coli” value read?
**A.** soluble

**Q.** Which “soluble on expression in E. coli” value does the source give for “MQREDILGEALKLLETQGIADTTLEMVAERVNRPLDTLQRFWPDKEAILYDALRYLSQQVDIWRRQLLLDETLSAEQKLLARYSALSECVSNNRYPGCLFIAACTFYPDPTHPIHQLANQQKRAAHDFTHELLTTLEIDDPAMVARQMELVLEGCLSRMLVNRSQADVDTAQRLAEDILRFAQCRQGGALT” here?
**A.** soluble

**Q.** Which “soluble on expression in E. coli” value does the source give for “MNVMQENQIKLIEHIKQAVVQAVGLEETEVPEILLEVPKDKKHGDYSTNIAMQLARVAKKAPRQIAESIVPELKKDTKLIKEVEIAGPGFINFYLDNAYLTDLVPVILTEDKKYG” here?
**A.** not soluble

**Q.** With “FHMNRVTGELGNRPLFSIADFTFYQGISCILGDNGVGKSTLFRSILQFQKYKGSITWKGSVLKKKKSLYRDLTGVVQEAEKQFIRVSLREELQLDGPDSERNQRIFQALRYFDLEQAVDKSPYQLSGGQQKILQLLTILTSKASVILLDEPFAGLDDRACHYFCKWIVEERNQGRSFLLISHRLDPLISVVDYWIEMTSQGLRHVKEVTITKPLTSQSSNTQGEVR” as the sequence, how does the “soluble on expression in E. coli” value read?
**A.** soluble

**Q.** Which “soluble on expression in E. coli” value does the source give for “MEDRFTTRRRANLESIAQRLLEISQKTEEDEANEVGEDDQHPKNVLNILNTITKEGLEKIVNDIIANGTIIDEMFVVLQRFSEKPALSNPIQRPFYSNLDDNVPSFLRNLQKWRLRDELTKSIEQEEKLKAELKHANDQINMIVEHNKLELDALNKINLEAKAQEKIQEEIIQRCMKRVEDLESILETKEQKLNDFEEREYETTCQLTMKHSLELAEKDQKILELEKYIRNNENQDVVALTRELERLRSQATKDEPSTDDSTIKISMAQHRLELEAQAKMIKTLEAELSKRQEINAEQIERLIEERNSEIKNLIREQSKEIHEKNVKIAKFEIKDYANIFRQISKNIFTNKEAPGPSGRPKKRRMVDDPEDLFHNYEDLDDAKFLELAKIIETTKKDVTTLINTEGPSEDVSGNFMEAKKIHGALAQLKEKDQTVSDLKQKTNQNNKRVDQEDPIEEYEYDYNDESDGESVKSETSSWDQIDDIF” here?
**A.** not soluble

**Q.** For “MNDNKILVVNAGSSSIKFQLFDYHKKVLAKALCERIFVDGFFKLEFNEQKVEEKVAFPDHHAAVTHFLNTLKKHKIIQELSDIILVGHRVVQGANYFKDSVIVDAEALAKIKEFIKLAPLHNKPEADVIEIFFKEVPSAKNVAVFDTTFHTTIPQENYLYAVPRSWEQKHLVRRYGFHGTSYKFINNYLEKHLNKQNLNLIVCHLGNGASVCAIKNGKSFNTSMGFTPLEGLIMGTRSGDLDPAIIGYVAEQENMSASDVVNALNKKSGMLALTGASDMRDVFAKPQENAVAIKMYVNRVADYIAKYLNQLEGNIDGLVFTGGIGENASDCVELFINAVKSLGFATDLKLFVKYGDSCVVSTPQSKYKIYRVRTNEELMIVEDSIRLTQK”, which “soluble on expression in E. coli” value is on record?
**A.** soluble

**Q.** With “MGSDKIHHHHHHGDWLNLNPSTSVTTPQAIRTLEEAQIALNGIYRIAASHSYYGDNYLYYADCRGEDVQARVSKGAGKRVSPYYEFNVTADDALNITRVWNQPYSVIHQANSLLERIESGAVVTDDAVALNCIKAEALALRGLALFDLTRLFAMPYTLNNGTSLGVPIEIKTTLPTHQPARNTVAECYQQVIDDMTGALKLSALSADKKNGYLNVWSVKALLSRVYLYMNDNEKALALAKEVMNNGGLYQLFTHDEYPTVWGKDFSSESLFEFYYTLSEPDGGTGGEGAPMVYADNVKDWNNLVLTKAFLDLLGEDPDDVRHSLNRLPEKPEEDILPEGSKGYPKYLNKYPGKTGDNPQDNDICIIRLSEVYLNAAEAAFKLGGAENLKFSLDCLNAIVSRANPVKSVKETELSLERILKERRKELVGEGHAFFDAMRNGLSVSRTGGWHLPSVAAAAVISPSDPRVALPIPQAEIDANPNMVQNPH” as the sequence, how does the “soluble on expression in E. coli” value read?
**A.** not soluble
